Measurements as given in the supplement of paper PMC9732359.
± gives the uncertainty stated by the source.

Assay: protein stability index of a GFP-peptide fusion (yeast GPS) (PSI 1-4); higher = more stable; sorted into four equal gates, so the index is relative within each strain
Summary of the method: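 Each library plasmid carries Cherry plus GFP with a tiled 17-residue yeast protein peptide fused downstream, and the pooled library was carried in yeast. Mid-log cultures in leucine-free medium were sorted into four equal gates by GFP/Cherry ratio. Reads from Illumina sequencing of PCR-amplified plasmids from each gate were assigned to strains by barcodes. Per peptide, the protein stability index was computed as the summed products of gate read frequency and gate number.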

Row | Sequence | protein stability index (doa10∆) | protein stability index (pdr5∆) | protein stability index (san1∆) | protein stability index (ubr1∆)
1 | LVSSGDRFIELISDQLL [YML103C/NUP188] | 2.76 ± 0.099 | 2.5 ± 0.079 | 2.42 ± 0.057 | 3 ± 0.06
2 | KLQGLYENIPIYATFLN [YDL116W/NUP84] | 1.32 ± 0.063 | 1.25 ± 0.058 | 1.22 ± 0.14 | 1.13 ± 0.059
3 | MDIAERIAVLHQKTKTL [YGL172W/NUP49] | 2.14 ± 0.076 | 1.67 ± 0.058 | 1.81 ± 0.11 | 1.51 ± 0.067
4 | MDIMEDFLRYINIKYLR [SNF2] | 1.54 ± 0.039 | 1.37 ± 0.044 | 1.37 ± 0.12 | 1.3 ± 0.036
5 | SEDVSRDHEKDTYRTLM [YIL149C/MLP2] | 3.36 ± 0.047 | 3.41 ± 0.051 | 3.43 ± 0.035 | 3.33 ± 0.047
6 | FSSNLSYANHLEESDVE [YOR098C/NUP1] | 2.45 ± 0.087 | 2.22 ± 0.059 | 1.91 ± 0.082 | 1.89 ± 0.052
7 | APNHSPEIDNLDDLVVL [RRP6] | 3.16 ± 0.11 | 3.51 ± 0.11 | 3 ± 0.15 | 2.71 ± 0.088
8 | IDFTLLNRLLRLIVDPN [PRP8] | 1.85 ± 0.059 | 1.88 ± 0.058 | 1.84 ± 0.071 | 1.73 ± 0.051
9 | TRNEQTTIQTEKVRPTP [MCD1] | 2.82 ± 0.04 | 2.99 ± 0.046 | 2.88 ± 0.036 | 3 ± 0.031
10 | GENDDDTLDGDLMDDMS [RPN3] | 2.73 ± 0.17 | 2.7 ± 0.075 | 2.11 ± 0.12 | 2.15 ± 0.1
11 | ISEVMEDRNQRIKEMYW [FAS1] | 3.07 ± 0.16 | 3.3 ± 0.17 | 2.99 ± 0.12 | 2.97 ± 0.12
12 | AETIILSSAGKNSSVSS [SRB5] | 1.65 ± 0.063 | 2.17 ± 0.051 | 2.06 ± 0.083 | 1.89 ± 0.075
13 | MIISGSRDKTIKVWTIK [ASC1] | 2.48 ± 0.084 | 2.71 ± 0.092 | 2.49 ± 0.11 | 2.95 ± 0.087
14 | ADLERFFLSIYFFYASR [YJL039C/NUP192] | 1.68 ± 0.073 | 1.12 ± 0.13 | 1.22 ± 0.12 | 1.55 ± 0.072
15 | PEFAGYSKAAEPHAVSL [ASC1] | 2.51 ± 0.073 | 2.44 ± 0.063 | 2.17 ± 0.068 | 2.21 ± 0.047
16 | RGRPPKARNGLDYVRTP [SNF2] | 1.52 ± 0.096 | 1.67 ± 0.087 | 2.41 ± 0.13 | 3.09 ± 0.074
17 | GDPALVYKFMSLAKSSA [ECM29] | 3.22 ± 0.11 | 2.77 ± 0.08 | 2.54 ± 0.089 | 3.09 ± 0.054
18 | SSVTSDSMKYTISSLFV [RPC82] | 1.93 ± 0.046 | 2.3 ± 0.043 | 2.14 ± 0.06 | 2.16 ± 0.042
19 | KTVQSMTQRAIQSAESI [SWI3] | 2.5 ± 0.11 | 1.8 ± 0.079 | 2.53 ± 0.13 | 1.82 ± 0.12
20 | EGLSAQIAFDLVSSASQ [RPN2] | 2.6 ± 0.068 | 3.05 ± 0.075 | 2.67 ± 0.1 | 2.62 ± 0.039
21 | AKGKSGVQTAYIDYSSK [RRP40] | 2.54 ± 0.24 |  |  | 2.91 ± 0.24
22 | QKIMILQRTILNRIINH [RGR1] | 1.81 ± 0.068 | 1.83 ± 0.067 | 2 ± 0.076 | 1.7 ± 0.055
23 | MVGQQYSSAPLRTVKEV [RPO21] |  | 1.92 ± 0.27 |  | 
24 | SLNTKKNEKLILEESLN [SMC3] | 2.18 ± 0.064 | 2 ± 0.074 | 2.59 ± 0.15 | 2.6 ± 0.078
25 | ITSIMDDLALPYQHPPN [ITC1] | 3.17 ± 0.084 | 3.34 ± 0.076 | 3.08 ± 0.078 | 3.22 ± 0.048
26 | SIGSIYQWNLDGLQQLD [RPN1] | 3.26 ± 0.1 | 3.4 ± 0.068 | 1.93 ± 0.1 | 2.96 ± 0.067
27 | IFEISLQRKDYTSIVQC [YML103C/NUP188] | 1.76 ± 0.051 | 1.75 ± 0.048 | 2.05 ± 0.12 | 1.88 ± 0.052

Row | Sequence | protein stability index (doa10∆) | protein stability index (pdr5∆) | protein stability index (san1∆) | protein stability index (ubr1∆)
28 | NTSAIQETASPLSQDEL [YIL149C/MLP2] | 1.23 ± 0.09 | 1.39 ± 0.091 | 1.19 ± 0.17 | 1.25 ± 0.077
29 | MEKLDAKLNHLKKLEKF [SWI3] | 2.81 ± 0.13 | 2.7 ± 0.1 | 3.02 ± 0.12 | 
30 | MCEQALSALFTISSKPD [YCS4] | 2.22 ± 0.038 | 1.72 ± 0.04 | 1.87 ± 0.056 | 1.77 ± 0.032
31 | YQEDIFVSESPSFVKSG [ISW2] | 2.85 ± 0.098 | 2.47 ± 0.077 | 2.48 ± 0.13 | 2.73 ± 0.045
32 | ISIPKTCDEIQNFENDF [REC8] | 2.8 ± 0.077 | 2.92 ± 0.068 | 2.61 ± 0.056 | 2.85 ± 0.046
33 | TIVTGGGSGNGDDVVND [RPP1] | 3.14 ± 0.26 | 3.6 ± 0.17 | 3.22 ± 0.12 | 3.54 ± 0.21
34 | ADLKKGKDLSPAINYTK [QCR2] | 3.26 ± 0.13 | 3.36 ± 0.08 | 3.32 ± 0.086 | 3.23 ± 0.065
35 | MDVDQFDFLDDGTAQLS [YJR042W/NUP85] | 2.46 ± 0.079 | 2.98 ± 0.075 | 3.32 ± 0.068 | 2.53 ± 0.063
36 | YIKYNILLTSISRERDL [SRP68] | 1.69 ± 0.07 | 1.58 ± 0.062 | 1.83 ± 0.12 | 1.91 ± 0.094
37 | YMVSRAIRDGVIEAKIN [RPN3] |  | 3.28 ± 0.17 | 2.95 ± 0.12 | 2.8 ± 0.15
38 | LVDNLNAEVVAGNIKCR [BRR2] | 1.79 ± 0.087 | 1.67 ± 0.07 | 1.72 ± 0.14 | 1.45 ± 0.075
39 | FISSGTSLLDSLISVLE [YJL039C/NUP192] | 2 ± 0.056 | 2.27 ± 0.052 | 2.17 ± 0.08 | 1.91 ± 0.047
40 | GVARNFHFAIEQISNNS [SIN4] | 2.8 ± 0.1 | 2.13 ± 0.075 | 2.08 ± 0.064 | 2.97 ± 0.062
41 | KAFTNWNKRDFMAFINA [ISW2] | 1.26 ± 0.078 | 1.25 ± 0.091 | 1.25 ± 0.16 | 1.16 ± 0.062
42 | QVLFQGLIYSFNEENGE [POP1] | 3.1 ± 0.13 | 3.24 ± 0.18 | 2.77 ± 0.26 | 3.02 ± 0.18
43 | PPETKLPYPTYWSDKKA [SNF5] | 2.91 ± 0.085 | 2.82 ± 0.062 | 3.15 ± 0.056 | 2.86 ± 0.053
44 | GKQAIGAIAYNQFKRID [RET1] | 2.27 ± 0.2 |  |  | 2.28 ± 0.14
45 | SLIIDQQENSKSGKRKP [RPC31] | 2.71 ± 0.099 | 2.7 ± 0.1 | 2.69 ± 0.086 | 2.7 ± 0.092
46 | LDIKRVGSENVECTISI [SNF12] | 2.27 ± 0.067 | 2.78 ± 0.066 | 2.56 ± 0.056 | 2.81 ± 0.065
47 | EILNECHDELKALPMLE [MED4] | 2.52 ± 0.11 | 2.95 ± 0.16 | 2.59 ± 0.083 | 3.09 ± 0.088
48 | VSVLLISKDCSAFACKT [BRR2] | 1.96 ± 0.052 | 2.27 ± 0.042 | 2.21 ± 0.064 | 2.17 ± 0.049
49 | ALGMMTRISSQFEKSRK [RET1] | 1.39 ± 0.066 | 1.27 ± 0.09 | 1.37 ± 0.17 | 1.08 ± 0.06
50 | EVDYEDKDNPVDSRNET [SRB4] | 3.46 ± 0.19 | 2.99 ± 0.17 | 3.47 ± 0.12 | 3.33 ± 0.25
51 | YVISLSYTDAQDKSKKI [YMR129W/POM152] | 2.67 ± 0.12 | 2.95 ± 0.082 | 2.9 ± 0.072 | 2.68 ± 0.06
52 | FYGVLDQGNGWLYVYET [RPN6] | 2.9 ± 0.095 | 2.65 ± 0.073 | 1.9 ± 0.095 | 3.02 ± 0.071
53 | FLLRRVKADVEKSLLPK [ISW2] | 3.19 ± 0.13 | 3.05 ± 0.17 | 3.02 ± 0.079 | 2.94 ± 0.1
